# ± gives the uncertainty stated by the source.
# B1: POU domain, class 3, transcription factor 4, residues 280 to 335; numbered along this chain, P49335 (parent)
# chain: KKRTSIEVSVKGVLETHFLKCPKPAAQEISSLADSLQLEKEVVRVWFCNRRQKEKR
# Variants of: B1
# Assay: abundance fitness (aPCA) (normalised: wild type 0, dead -1); higher = more abundant; growth selection in yeast, the domain comes from the species named
# Conditions: Homo sapiens
row,Variant,abundance fitness
1,KKRTSIEVSVKGVLETHFLKCPKPAAQPISSLADSLQLEKEVVRVWFCNRRQKEKR [E28P],-0.352 ± 0.22
2,KKRTSIEVSVKGVLETHFLKCPKPAAQEISSLADSLQLEKEQVRVWFCNRRQKEKR [V42Q],-0.254 ± 0.24
3,KKRTSIEVSVKGVLETHFLKCPKPAAQEISSLADSLQLEKEGVRVWFCNRRQKEKR [V42G],-0.648 ± 0.17
4,KKRTSIEVSVKGVLETHFLKCPKPAAQEISSLADSLQLEKEDVRVWFCNRRQKEKR [V42D],0.216 ± 0.41
5,KKRTSIEVSVKGVLETHFLKCPKPAAQEISSLADSLQLEKERVRVWFCNRRQKEKR [V42R],-0.689 ± 0.14
6,KKRTSIEVSVKGVLETHFLKCPKPAAQEISSLADSLQLEKEVFRVWFCNRRQKEKR [V43F],-0.567 ± 0.28
7,KKRTSIEVSVKGVLETHFLKCPKPAAQEISSLADSLQLEKEVMRVWFCNRRQKEKR [V43M],-1.22 ± 0.47
8,KKRTSIEVSVKGVLETHFLKCPKPADQEISSLADSLQLEKEVVRVWFCNRRQKEKR [A26D],0.396 ± 0.2
9,KKRTSIEVSVKGVLETHFLKCPKPAMQEISSLADSLQLEKEVVRVWFCNRRQKEKR [A26M],0.108 ± 0.18
10,KKRTSIEVSVKGVLEYHFLKCPKPAAQEISSLADSLQLEKEVVRVWFCNRRQKEKR [T16Y],-0.306 ± 0.42
11,KKRTSIEVSVKGVLENHFLKCPKPAAQEISSLADSLQLEKEVVRVWFCNRRQKEKR [T16N],-0.223 ± 0.29
12,KKRTSIEVSVKGVLERHFLKCPKPAAQEISSLADSLQLEKEVVRVWFCNRRQKEKR [T16R],0.059 ± 0.13
13,KKRTSIEVSNKGVLETHFLKCPKPAAQEISSLADSLQLEKEVVRVWFCNRRQKEKR [V10N],-0.279 ± 0.31
14,KKRTSIEVSVKGVLETHFLKCPKPAAQEISSLADSLQLEKEVVRPWFCNRRQKEKR [V45P],-0.38 ± 0.2
15,KKRISIEVSVKGVLETHFLKCPKPAAQEISSLADSLQLEKEVVRVWFCNRRQKEKR [T4I],0.067 ± 0.3
16,KKRTSIEVSVKGVLETHFLKCPKPTAQEISSLADSLQLEKEVVRVWFCNRRQKEKR [A25T],0.495 ± 0.14
17,KKRTSIEVSVKGVLETHFLKCPKPQAQEISSLADSLQLEKEVVRVWFCNRRQKEKR [A25Q],0.045 ± 0.16
18,KKHTSIEVSVKGVLETHFLKCPKPAAQEISSLADSLQLEKEVVRVWFCNRRQKEKR [R3H],-0.277 ± 0.31
19,KKRTSIEVSVKGVLETHFLKAPKPAAQEISSLADSLQLEKEVVRVWFCNRRQKEKR [C21A],-0.756 ± 0.18
20,RKRTSIEVSVKGVLETHFLKCPKPAAQEISSLADSLQLEKEVVRVWFCNRRQKEKR [K1R],-0.312 ± 0.2
21,KKRTSIEVSVKGVLETHFLKCPKPAAQEISSLADSLQLEKEVVRVAFCNRRQKEKR [W46A],-0.623 ± 0.15
22,KKRTSIEVSVKGVLETHFLKCPKPAAQEISSLADSLQLEKEVVRVEFCNRRQKEKR [W46E],-0.892 ± 0.25
23,KKRTIIEVSVKGVLETHFLKCPKPAAQEISSLADSLQLEKEVVRVWFCNRRQKEKR [S5I],-0.107 ± 0.2
24,KKRTKIEVSVKGVLETHFLKCPKPAAQEISSLADSLQLEKEVVRVWFCNRRQKEKR [S5K],0.226 ± 0.27

row,Variant,abundance fitness
1,KKRTSIEVSVKGMLETHFLKCPKPAAQEISSLADSLQLEKEVVRVWFCNRRQKEKR [V13M],0.18 ± 0.34
2,KKRTSIEVSVKGLLETHFLKCPKPAAQEISSLADSLQLEKEVVRVWFCNRRQKEKR [V13L],-0.02 ± 0.26
3,KKRTSIEVSVKGVLETHFLKCPKPAAQEISSLADSLQLEKEVVRVWACNRRQKEKR [F47A],-0.65 ± 0.17
4,KKRTSIEVSVKGVLETHFLKCPKPAAQEISSLADSLQLEKEVVRVWCCNRRQKEKR [F47C],-0.792 ± 0.31
5,KKRTSIEVSVKGVLETHFLKCPKPAAQEISSLADSLQLEKEVVRVWWCNRRQKEKR [F47W],-0.769 ± 0.21
6,KKRTSIEVSVKGVLETHFLKCPKPAAQEISSLADSLQLEKEVVRVWMCNRRQKEKR [F47M],-0.897 ± 0.3
7,KKRTSIEVSVKGVLETHFLKCPKPAAQEISSLADSLQLEKEVVRVWVCNRRQKEKR [F47V],-0.795 ± 0.19
8,KKRTSIEVSVKGVLETHFLQCPKPAAQEISSLADSLQLEKEVVRVWFCNRRQKEKR [K20Q],-0.578 ± 0.25
9,KKRTSIEVSVKGVLETHFLPCPKPAAQEISSLADSLQLEKEVVRVWFCNRRQKEKR [K20P],-0.805 ± 0.22
10,KKRTSIIVSVKGVLETHFLKCPKPAAQEISSLADSLQLEKEVVRVWFCNRRQKEKR [E7I],-0.357 ± 0.11
11,KKRTSIYVSVKGVLETHFLKCPKPAAQEISSLADSLQLEKEVVRVWFCNRRQKEKR [E7Y],-0.285 ± 0.099
12,KKRTSIEVSVKQVLETHFLKCPKPAAQEISSLADSLQLEKEVVRVWFCNRRQKEKR [G12Q],0.103 ± 0.29
13,KKRTSIEVSVKGVLETHFLKCPKPAAQEISSLADSLQLEKEVVRVWFCNRRPKEKR [Q52P],-0.741 ± 0.22
14,KKRTSGEVSVKGVLETHFLKCPKPAAQEISSLADSLQLEKEVVRVWFCNRRQKEKR [I6G],-0.197 ± 0.12
15,KKRTSCEVSVKGVLETHFLKCPKPAAQEISSLADSLQLEKEVVRVWFCNRRQKEKR [I6C],-0.626 ± 0.13
16,KKRTSNEVSVKGVLETHFLKCPKPAAQEISSLADSLQLEKEVVRVWFCNRRQKEKR [I6N],-0.249 ± 0.095
17,KKRTSLEVSVKGVLETHFLKCPKPAAQEISSLADSLQLEKEVVRVWFCNRRQKEKR [I6L],0.018 ± 0.083
18,KKRTSIEVSVKGVLETHFLKCPKWAAQEISSLADSLQLEKEVVRVWFCNRRQKEKR [P24W],-0.514 ± 0.27
19,KKRTSIERSVKGVLETHFLKCPKPAAQEISSLADSLQLEKEVVRVWFCNRRQKEKR [V8R],0.362 ± 0.12
20,KKRTSIELSVKGVLETHFLKCPKPAAQEISSLADSLQLEKEVVRVWFCNRRQKEKR [V8L],0.293 ± 0.12
21,KKRTSIEESVKGVLETHFLKCPKPAAQEISSLADSLQLEKEVVRVWFCNRRQKEKR [V8E],0.623 ± 0.14
22,KKRTSIEVSVKGVLETHFLKCEKPAAQEISSLADSLQLEKEVVRVWFCNRRQKEKR [P22E],-0.702 ± 0.21
23,KKRTSIEVSVKGVLETHKLKCPKPAAQEISSLADSLQLEKEVVRVWFCNRRQKEKR [F18K],-0.461 ± 0.21

# Source: the Human Domainome abundance scans (Beltran et al. 2025)
